Laboratory results as given in patent EP4717706A1.
Positions count from the first letter of the chain named. Numbers in names are those of the source.

B1: AVR25a (AVR21 with N329K, E401G, T426A, A461P) (receptor)
chain: MGSAGESDQITLPKHEAQLKVYVLLVPPKGEASTYDWQLITHPRDYSGEMEGEHSQILKLSNLTPGLYEYRAVVEGQNAHSEGYVNVTVEPGPRKNRPPIAIVSPQFQEISLPTTSAVIDGSQSTDDDKIVQYHWEELKGPLREEKISEDTPILKLSQLVPGNYTFRLTVVDTDGATDSTTADLTVNKAVDHHHHHH
B2: AAV-binding protein AVR21 (receptor)
chain: B1 chain with K20N, G92E, A117T, P152A
B3: AVR25c (AVR25a with K467N) (receptor)
chain: B1 chain with Q158N
B4: AVR28 (AVR25c with I366F, V394A, K455R) (receptor)
chain: B1 chain with I57F, V85A, K146R, Q158N
B5: AVR29c (AVR25c with I366F, V394A, K455R, K497E) (receptor)
chain: B1 chain with I57F, V85A, K146R, Q158N, K188E
B6: AVR29b (AVR25c with G314D, I366F, V394A, K455R) (receptor)
chain: B1 chain with G5D, I57F, V85A, K146R, Q158N
B7: AVR29d (AVR25c with I366F, V394A, K455R, V499I) (receptor)
chain: B1 chain with I57F, V85A, K146R, Q158N, V190I
B8: AVR27c (AVR25c with V394A, T474R) (receptor)
chain: B1 chain with V85A, Q158N, T165R
B9: AVR27b (AVR25c with I366F, T474R) (receptor)
chain: B1 chain with I57F, Q158N, T165R
B10: AVR29a (AVR25c with I366F, V394A, K455R, T474R) (receptor)
chain: B1 chain with I57F, V85A, K146R, Q158N, T165R
B11: AVR27d (AVR25c with K455R, T474R) (receptor)
chain: B1 chain with K146R, Q158N, T165R
B12: AVR31 (AVR25c with G314D, I366F, V394A, K455R, K497E, V499I) (receptor)
chain: B1 chain with G5D, I57F, V85A, K146R, Q158N, K188E, V190I
B13: AVR8g with Y331H, F379S, K467N, A491T (receptor)
chain: MGSAGESDQITLPKNEVQLNAHVLQEPPKGETCTYDWQLITHPRDYSGEMEGEHSQILKLSNLTPGLYESKVIVEGQNAHSEGYVNVTVEPEPRKNRPPIAIVSPQFQEISLPTTSTVIDGSQSTDDDKIVQYHWEELKGPLREEKISEDTAILKLSNLVPGNYTFRLTVVDSDGATDSTTTNLTVNKAVDHHHHHH

target: VLP2 (virus-like particles, capsid protein particles of AAV serotype 2) (AAV serotype 2 (AAV2)) (UniProt P03135); experiment: ELISA on immobilised VLP2 (purified protein); start of alkali treatment, the reference of the ratio
Sequence of UniProt P03135 (P03135 whole entry): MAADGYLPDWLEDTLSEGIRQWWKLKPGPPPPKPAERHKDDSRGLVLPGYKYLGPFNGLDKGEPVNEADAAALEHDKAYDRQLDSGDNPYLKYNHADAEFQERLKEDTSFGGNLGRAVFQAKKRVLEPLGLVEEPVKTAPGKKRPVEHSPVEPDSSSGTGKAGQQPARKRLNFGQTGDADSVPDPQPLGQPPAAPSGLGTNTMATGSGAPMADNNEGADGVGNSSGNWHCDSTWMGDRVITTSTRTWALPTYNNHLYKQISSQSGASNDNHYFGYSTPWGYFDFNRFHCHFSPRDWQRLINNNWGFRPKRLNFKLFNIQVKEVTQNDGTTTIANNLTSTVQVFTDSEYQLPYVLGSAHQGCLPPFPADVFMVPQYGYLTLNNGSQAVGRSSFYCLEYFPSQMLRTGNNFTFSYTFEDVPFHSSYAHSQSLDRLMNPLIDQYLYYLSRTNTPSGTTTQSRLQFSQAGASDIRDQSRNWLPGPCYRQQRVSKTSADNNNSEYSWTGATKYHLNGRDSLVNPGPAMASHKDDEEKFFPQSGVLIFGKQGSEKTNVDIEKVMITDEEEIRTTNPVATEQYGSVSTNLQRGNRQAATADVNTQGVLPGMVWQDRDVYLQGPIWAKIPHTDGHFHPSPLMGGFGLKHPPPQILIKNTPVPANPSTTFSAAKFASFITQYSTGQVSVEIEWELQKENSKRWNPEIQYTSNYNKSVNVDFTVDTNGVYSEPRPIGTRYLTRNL

Binder | Remaining activity [%]
B1 | 100%
B2 | 100%
B3 | 100%

target: VLP2 (virus-like particles, capsid protein particles of AAV serotype 2) (AAV serotype 2 (AAV2)) (UniProt P03135); experiment: ELISA on immobilised VLP2 (purified protein, 5 µg/mL); start of alkali treatment, the reference of the ratio

Binder | Remaining activity [%]
B4 | 100%
B5 | 100%
B6 | 100%
B7 | 100%
B8 | 100%
B9 | 100%
B10 | 100%
B2 | 100%
B3 | 100%
B11 | 100%
B12 | 100%

target: VLP2 (virus-like particles, capsid protein particles of AAV serotype 2) (AAV serotype 2 (AAV2)) (UniProt P03135); experiment: ELISA on immobilised VLP2 (purified protein); A450 after 1:1 0.5 M NaOH, 30°C, 30 min divided by A450 at 0 time

Binder | Remaining activity [%]
B1 | 100%
B2 | 16.9%

target: VLP2 (virus-like particles, capsid protein particles of AAV serotype 2) (AAV serotype 2 (AAV2)) (UniProt P03135); experiment: ELISA on immobilised VLP2 (purified protein); A450 after 1:1 0.5 M NaOH, 30°C, 60 min divided by A450 at 0 time

Binder | Remaining activity [%]
B1 | 47.9%
B2 | 0%

target: VLP2 (virus-like particles, capsid protein particles of AAV serotype 2) (AAV serotype 2 (AAV2)) (UniProt P03135); experiment: ELISA on immobilised VLP2 (purified protein); A450 after 1:1 0.5 M NaOH, 30°C, 30 min divided by A450 at 0 time; remark: another data set of the same source

Binder | Remaining activity [%]
B1 | 62.3%
B3 | 91.2%

target: VLP2 (virus-like particles, capsid protein particles of AAV serotype 2) (AAV serotype 2 (AAV2)) (UniProt P03135); experiment: ELISA on immobilised VLP2 (purified protein); A450 after 1:1 0.5 M NaOH, 30°C, 90 min divided by A450 at 0 time

Binder | Remaining activity [%]
B1 | 0%
B3 | 66.9%

target: VLP2 (virus-like particles, capsid protein particles of AAV serotype 2) (AAV serotype 2 (AAV2)) (UniProt P03135); experiment: ELISA on immobilised VLP2 (culture supernatant); A450 after 1:1 1 M NaOH, 15 min, 30°C divided by A450 untreated

Binder | Remaining activity [%]
B4 | 71.9%
B3 | 33.5%

target: VLP2 (virus-like particles, capsid protein particles of AAV serotype 2) (AAV serotype 2 (AAV2)) (UniProt P03135); experiment: ELISA on immobilised VLP2 (culture supernatant); A450 after 1:1 0.1 M glycine-NaOH pH 10.0, 15 min, 51.3°C divided by A450 untreated

Binder | Remaining activity [%]
B13 | 28.1%

target: VLP2 (virus-like particles, capsid protein particles of AAV serotype 2) (AAV serotype 2 (AAV2)) (UniProt P03135); experiment: ELISA on immobilised VLP2 (culture supernatant, anti-His detection); A450 after 1:1 0.5 M NaOH, 30 min, 30°C divided by A450 untreated

Binder | Remaining activity [%]
B2 | 26.2%

target: VLP2 (virus-like particles, capsid protein particles of AAV serotype 2) (AAV serotype 2 (AAV2)) (UniProt P03135); experiment: ELISA on immobilised VLP2 (purified protein, 5 µg/mL); A450 after 1:1 1 M NaOH with 1 mM CaCl2, 30°C, 30 min divided by A450 at 0 time

Binder | Remaining activity [%]
B4 | 22.5%
B10 | 24.2%
B3 | 2.87%

target: VLP2 (virus-like particles, capsid protein particles of AAV serotype 2) (AAV serotype 2 (AAV2)) (UniProt P03135); experiment: ELISA on immobilised VLP2 (purified protein, 5 µg/mL); A450 after 1:1 1 M NaOH with 1 mM CaCl2, 30°C, 60 min divided by A450 at 0 time

Binder | Remaining activity [%]
B4 | 3%
B10 | 5.07%
B3 | 0.197%

target: VLP2 (virus-like particles, capsid protein particles of AAV serotype 2) (AAV serotype 2 (AAV2)) (UniProt P03135); experiment: ELISA on immobilised VLP2 (purified protein, 5 µg/mL); A450 after 1:1 1 M NaOH with 1 mM CaCl2, 30°C, 30 min divided by A450 at 0 time; remark: another data set of the same source

Binder | Remaining activity [%]
B8 | 13.6%
B9 | 17.1%
B3 | 5.28%
B11 | 15.8%

target: VLP2 (virus-like particles, capsid protein particles of AAV serotype 2) (AAV serotype 2 (AAV2)) (UniProt P03135); experiment: ELISA on immobilised VLP2 (purified protein, 5 µg/mL); A450 after 1:1 1 M NaOH with 1 mM CaCl2, 30°C, 45 min divided by A450 at 0 time

Binder | Remaining activity [%]
B5 | 1.93%
B6 | 1.31%
B7 | 4.47%
B8 | 1.73%
B9 | 4.54%
B3 | 0%
B11 | 5.11%

target: VLP2 (virus-like particles, capsid protein particles of AAV serotype 2) (AAV serotype 2 (AAV2)) (UniProt P03135); experiment: ELISA on immobilised VLP2 (purified protein, 5 µg/mL); A450 after 1:1 1 M NaOH with 1 mM CaCl2, 30°C, 20 min divided by A450 at 0 time

Binder | Remaining activity [%]
B5 | 78.7%
B6 | 58.7%
B7 | 63%
B3 | 12.1%

target: VLP2 (virus-like particles, capsid protein particles of AAV serotype 2) (AAV serotype 2 (AAV2)) (UniProt P03135); experiment: as above; remark: another data set of the same source

Binder | Remaining activity [%]
B4 | 42.5%
B5 | 93.2%
B6 | 63.7%
B7 | 68.6%

target: VLP2 (virus-like particles, capsid protein particles of AAV serotype 2) (AAV serotype 2 (AAV2)) (UniProt P03135); experiment: ELISA on immobilised VLP2 (purified protein, 5 µg/mL); A450 after 1:1 1 M NaOH with 1 mM CaCl2, 30°C, 60 min divided by A450 at 0 time; remark: another data set of the same source

Binder | Remaining activity [%]
B4 | 1.22%
B5 | 2.39%
B6 | 1.08%
B7 | 1.06%

target: VLP2 (virus-like particles, capsid protein particles of AAV serotype 2) (AAV serotype 2 (AAV2)) (UniProt P03135); experiment: ELISA on immobilised VLP2 (purified protein, 5 µg/mL); A450 after 1:1 1 M NaOH with 1 mM CaCl2, 30°C, 30 min divided by A450 at 0 time; remark: another data set of the same source

Binder | Remaining activity [%]
B4 | 42%
B5 | 57.7%
B3 | 22%
B12 | 48.3%

target: VLP2 (virus-like particles, capsid protein particles of AAV serotype 2) (AAV serotype 2 (AAV2)) (UniProt P03135); experiment: ELISA on immobilised VLP2 (purified protein, 5 µg/mL); A450 after 1:1 1 M NaOH with 1 mM CaCl2, 30°C, 60 min divided by A450 at 0 time; remark: another data set of the same source

Binder | Remaining activity [%]
B4 | 6.29%
B5 | 15.7%
B3 | 2.19%
B12 | 10.6%

target: VLP2 (virus-like particles, capsid protein particles of AAV serotype 2) (AAV serotype 2 (AAV2)) (UniProt P03135); experiment: ELISA on immobilised VLP2 (purified protein, 5 µg/mL); A450 after 1:1 1 M NaOH with 1 mM CaCl2, 30°C, 30 min divided by A450 at 0 time; remark: another data set of the same source

Binder | Remaining activity [%]
B2 | 1.53%
B3 | 16.3%
B12 | 53.8%

target: VLP2 (virus-like particles, capsid protein particles of AAV serotype 2) (AAV serotype 2 (AAV2)) (UniProt P03135); experiment: ELISA on immobilised VLP2 (purified protein, 5 µg/mL); A450 after 1:1 1 M NaOH with 1 mM CaCl2, 30°C, 60 min divided by A450 at 0 time; remark: another data set of the same source

Binder | Remaining activity [%]
B2 | 0.694%
B3 | 1.96%
B12 | 13.3%
